# Measured values taken from patent US20210246200A1 (UNIVERSIT T Z RICH, published 2021).
# Substitutions are numbered along the chain they refer to. Numbers in names are those of the source.
# B1: NARA1 (antibody, mouse IgG2a, kappa, V domains shown)
# VH: QVQLQQSGAELVRPGTSVKVSCKASGYAFTNYLIEWVKQRPGQGLEWIGVINPGSGGTNYNEKFKGKATLTADKSSSTAYMQLSSLTSDDSAVYFCARWRGDGYYAYFDVWGAGTTVTVSS
# VL: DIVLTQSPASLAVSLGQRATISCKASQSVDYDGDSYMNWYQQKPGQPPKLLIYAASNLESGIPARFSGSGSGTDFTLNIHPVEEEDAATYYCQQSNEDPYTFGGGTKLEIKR
# notes: Mouse monoclonal anti-human IL-2 antibody, mouse IgG2a; also called anti-IL-2 (NARA1)-mIgG2a; anti-IL-2 (NARA1)-mouse IgG2a
# B2: 104347 (antibody, V domains shown)
# VH: QVQLVESGGGVVQPGRSLRLSCAASGYTFSSYLIEWVRQAPGKGLEWVAVINPGSGGTNYADSVKGRFTISADKSKNTAYLQMNSLRAEDTAVYYCARWRGDGYYAYFDVWGQGTTVTVSS
# VL: EIVLTQSPATLSVSPGERATLSCRASQSVSYDGDSYMNWYQQKPGQAPRLLIYAASNLASGIPARFSGSGSGTEFTLTISSLQSEDAAVYYCQQSNEDPYTFGGGTKVEIK
# notes: VH3s/VK3s
# B3: 104343 (antibody, human IgG1, kappa, N297A, V domains shown)
# VH: QVQLVQSGAEVKKPGSSVKVSCKASGYAFTNYLIEWVRQAPGQGLEWMGVINPGSGGTNYNEKFKGRVTITADKSTSTAYMELSSLRSEDTAVYYCARWRGDGYYAYFDVWGQGTTVTVSS
# VL: DIVLTQSPLSLPVTLGQPASISCKASQSVDYDGDSYMNWYQQRPGQSPRLLIYAASNLESGVPDRFSGSGSGTDFTLKISRVEAEDVGVYYCQQSNEDPYTFGGGTKVEIKR
# notes: VH1/VK2, human IgG1 N297A
# B4: 104349 (antibody, V domains shown)
# VH: EVQLVQSGAEVKKPGESLKISCKGSGYAFTNYLIEWVRQMPGKGLEWMGVINPGSGGTNYNEKFKGQVTISADKSISTAYLQWSSLKASDTAMYYCARWRGDGYYAYFDVWGQGTTVTVSS
# VL: DIVLTQSPLSLPVTLGQPASISCKASQSVDYDGDSYMNWYQQRPGQSPRLLIYAASNLESGVPDRFSGSGSGTDFTLKISRVEAEDVGVYYCQQSNEDPYTFGGGTKVEIK
# notes: VH5/VK2
# B5: 104348 (antibody, human IgG1, kappa, N297A, V domains shown)
# VH: B4 VH
# VL: AIRLTQSPSSFSASTGDRVTITCKASQSVDYDGDSYMNWYQQKPGKAPKLLIYAASNLESGVPSRFSGSGSGTDFTLTISSLQSEDFATYYCQQSNEDPYTFGGGTKVEIKR
# notes: VH5/VK1, human IgG1 N297A
# B6: 104346 (antibody, V domains shown)
# VH: B2 VH
# VL: B4 VL
# notes: VH3s/VK2
# B7: 104341 (antibody, V domains shown)
# VH: B3 VH
# VL: AIRLTQSPSSFSASTGDRVTITCKASQSVDYDGDSYMNWYQQKPGKAPKLLIYAASNLESGVPSRFSGSGSGTDFTLTISSLQSEDFATYYCQQSNEDPYTFGGGTKVEIK
# notes: VH1/VK1
# B8: 104344 (antibody, V domains shown)
# VH: B3 VH
# VL: B2 VL
# notes: VH1/VK3s
# B9: 104345 (antibody, V domains shown)
# VH: B2 VH
# VL: B7 VL
# notes: VH3s/VK1
# B10: 104343_VH1D98E_VK2D28Q (antibody, V domains shown)
# VH: B3 VH with D102E
# VL: B4 VL with D32Q
# notes: Human IgG1 Fc domain with the N297A point mutation
# B11: 104343_VH1_VK2D28Q (antibody, V domains shown)
# VH: B3 VH
# VL: B4 VL with D32Q
# notes: as for B10
# B12: 104343_VH1D98E_VK2 (antibody, V domains shown)
# VH: B3 VH with D102E
# VL: B4 VL
# notes: as for B10
# B13: 104348_VH5D98E_VK1D28Q (antibody, human IgG1, kappa, N297A, V domains shown)
# VH: B4 VH with D102E
# VL: B5 VL with D32Q
# notes: also called Antibody No: 1; parental antibody
# B14: 104350 (antibody, V domains shown)
# VH: B4 VH
# VL: B2 VL
# notes: VH5/VK3s
# B15: 104349_VH5_VK2D28Q (antibody, V domains shown)
# VH: B4 VH
# VL: B4 VL with D32Q
# notes: as for B10
# B16: 108930 (antibody, human IgG1, kappa, N297A, V domains shown)
# VH: B4 VH with T30S, N59Y, D102E
# VL: B5 VL with D32Q, M37L, A54S
# B17: 104349_VH5D98E_VK2D28Q (antibody, V domains shown)
# VH: B4 VH with D102E
# VL: B4 VL with D32Q
# notes: as for B10
# B18: Antibody No: 15 (antibody, human IgG1, kappa, N297A, V domains shown)
# VH: B4 VH with N59Y, D102E
# VL: B5 VL with D32Q, M37L, A54S
# notes: VH N58Y; VK M33L + A50S; also called 108926
# B19: Antibody No: 12 (antibody, human IgG1, kappa, N297A, V domains shown)
# VH: B4 VH with N59Y, D102E
# VL: B5 VL with D32Q, M37L
# notes: VH N58Y; VK M33L; also called 108924
# B20: 104348_VH5_VK1D28Q (antibody, V domains shown)
# VH: B4 VH
# VL: B7 VL with D32Q
# notes: as for B10
# B21: Antibody No: 20 (antibody, human IgG1, kappa, N297A, V domains shown)
# VH: B4 VH with N59Y, D102E, F108Y
# VL: B5 VL with D32Q, M37L, A54S
# notes: VK M33L + A50S; also called 108928
# B22: 104348_VH5D98E_VK1 (antibody, V domains shown)
# VH: B4 VH with D102E
# VL: B7 VL
# notes: as for B10
# B23: Antibody No: 13 (antibody, human IgG1, kappa, N297A, V domains shown)
# VH: B4 VH with N59Y, D102E
# VL: B5 VL with D32Q, A54S
# notes: VH N58Y; VK A50S; also called 108925
# B24: Antibody No: 8 (antibody, human IgG1, kappa, N297A, V domains shown)
# VH: B4 VH with D102E, F108Y
# VL: B5 VL with D32Q, A54S
# notes: VK A50S; also called 108923
# B25: 104349_VH5D98E_VK2 (antibody, V domains shown)
# VH: B4 VH with D102E
# VL: B4 VL
# notes: as for B10
# Molecular target: T1, human IL-2 (wildtype) (human, UniProt P60568 21-153)
# T1 construct: also called IL-2 (WT); IL-2 wt
# Test: SET assay (solution equilibration titration, MSD)
# T1 sequence (P60568 21-153 limits assumed): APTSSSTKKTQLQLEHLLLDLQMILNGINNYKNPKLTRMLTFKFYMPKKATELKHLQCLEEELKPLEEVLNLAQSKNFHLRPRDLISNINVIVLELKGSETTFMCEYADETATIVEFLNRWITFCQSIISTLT
row,Binder,binding result
1,B1,binds
2,B2,binds
3,B3,binds
4,B4,binds
5,B5,binds

# Molecular target: T2, Proleukin® (aldesleukin) (human, UniProt P60568 21-153, limits assumed)
# T2 construct: Variant of human wt IL-2 with C145S (C125S on mature IL-2); also called IL-2 (Proleukin®); human IL-2 (Proleukin)
# Test: ELISA, coated Proleukin, mean of 3 experiments;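 further: binding of anti-human IL-2 antibodies, tested as an 11-point dilution series for 2 hours, to plate-bound IL-2, detected via streptavidin-HRP with absorbance read at 450 nm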
# Protocol: ELISA plates (Corning) were coated with human IL-2 (Proleukin) at 10 μg/mL in PBS overnight at 4° C. The plates were washed 6 times with PBST, then blocked in 1% BSA/PBST for 2 hours. After blocking and washing, the anti-human IL-2 antibodies were added on the plate in an 11-point dilution series in 1% BSA/PBST and incubated for 2 hours. […] The plates were then washed again and incubated with Streptavidin-Horseradish Peroxidase in 1% BSA/PBS for 45 minutes. After washing, the substrate (R&D Systems) was added into the plates and the enzymatic reaction was stopped after 3 minutes by adding Stop Solution. The plates were read by a microplate reader at 450 nm with a wavelength correction set to 540 nm.
# T2 sequence (P60568 other isoform, or with tags, fused parts or gaps limits assumed): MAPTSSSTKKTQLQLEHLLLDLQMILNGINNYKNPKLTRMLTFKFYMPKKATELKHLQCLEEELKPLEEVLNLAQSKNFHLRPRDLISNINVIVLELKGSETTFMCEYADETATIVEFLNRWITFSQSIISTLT
row,Binder,EC50
1,B1,0.3 nM
2,B6,1.7 nM
3,B2,39 nM
4,B7,0.4 nM
5,B8,0.7 nM
6,B9,2.9 nM
7,B3,0.3 nM
8,B10,0.75 nM
9,B11,0.59 nM
10,B12,0.57 nM
11,B13,1.18 nM
12,B4,0.3 nM
13,B14,0.8 nM
14,B15,0.43 nM
15,B16,0.06 nM
16,B17,0.66 nM
17,B5,0.3 nM
18,B18,0.05 nM
19,B19,0.11 nM
20,B20,0.97 nM
21,B21,0.71 nM
22,B22,0.77 nM
23,B23,0.06 nM
24,B24,0.05 nM
25,B25,0.56 nM

# Molecular target: T2, Proleukin® (aldesleukin)
# Test: ELISA, coated Proleukin, HEK293F supernatant 1:2
# Protocol: Subsequently, hIL-2 binding efficiency of the antibodies present in the supernatants was determined using ELISA. In brief, ELISA plates (Maxisorp 96-well black microtiter plate) were coated overnight at 4° C. with 100p/well of Proleukin® (5 μg/ml PBS). ELISA plates were washed once with TBST (1×TBS/0.05% Tween 20) using a plate-washer (BioTek). […] After removal of the blocking buffer, plates were washed once with TBST using the plate washer. Supernatants were diluted 1:2 in blocking buffer and 50 μl transferred to the designated well of the ELISA plate. Each sample was present on three ELISA plates. The three plates were incubated at RT under gentle agitation. […] The other two plates were washed either every hour three times with TBST for 4 hours or washed every hour three times for 12 hours before adding the detection antibody. […] Luminescence signal was measured after 5 minutes incubation in the dark. […] All ELISA values are mean values based on two measurements.
Binder,ELISA value (Normal ELISA),ELISA value (wash 3x every hour for 4 HRS),ELISA value (wash 3x every hour for 12 HRS)
B13,1180 luminescence signal,1060 luminescence signal,717 luminescence signal
B18,11100 luminescence signal,10500 luminescence signal,3800 luminescence signal
B19,20000 luminescence signal,17400 luminescence signal,5960 luminescence signal
B21,11700 luminescence signal,11100 luminescence signal,5200 luminescence signal
B23,14500 luminescence signal,14600 luminescence signal,4520 luminescence signal
B24,9370 luminescence signal,7310 luminescence signal,2530 luminescence signal

# Molecular target: T2, Proleukin® (aldesleukin)
# Test: SET assay (solution equilibration titration, MSD)
# Protocol: A 22 serial 2n dilution of the antigen was prepared in sample buffer. A constant concentration of the antibody was added. […] A volume of 60 μl of each antigen:antibody mix was distributed in duplicates to a 384-well polypropylene microtiter plate (PP MTP). Sample buffer served as negative control and a sample containing no antigen as positive control (Bₘₐₓ). The plate was sealed and incubated overnight (o/n) at room temperature (RT). A 384-well standard MSD array plate was coated o/n with 2 μg/ml of IL-2. After three times washing with washing buffer, the plate was blocked with 50 μl/well blocking buffer for 1 hour at RT. After washing, a volume of 30 μl/well of the antigen:antibody mix was transferred from the PP MTP to the coated MSD plate and incubated for 20 min at RT. After an additional wash step, 30 μl of detection antibody (diluted 1:2000) in sample buffer was added to each well and incubated for 30 min at RT. The MSD plate was washed and 35 μl/well of read buffer was added and incubated for 5 min. ECL signals were measured with the MSD SECTOR Imager 6000.
row,Binder,Kd
1,B1,0.078 nM
2,B2,10 nM
3,B3,0.075 nM
4,B10,0.111 nM
5,B11,0.069 nM
6,B12,0.098 nM
7,B13,0.272 nM
8,B4,0.082 nM
9,B15,0.069 nM
10,B17,0.188 nM
11,B5,0.105 nM
12,B20,0.155 nM
13,B22,0.206 nM
14,B25,0.178 nM

# Molecular target: T2, Proleukin® (aldesleukin)
# Test: ELISA, coated Proleukin, serially diluted supernatant
row,Binder,EC50
1,B13,1.04 nM
2,B18,0.28 nM
3,B19,0.25 nM
4,B21,0.27 nM
5,B23,0.19 nM
6,B24,0.24 nM
